4 substances from publication PMC9287719 can be followed below.

The target of test [1] is Recombinant FcγRIIa (R131) with C-terminus Biotin (human) (UniProt P12318).
The target of test [2] is Recombinant FcγRIIb with C-terminus Biotin (human) (UniProt P31994).
In test [3] the target is Recombinant FcγRIIIa (F158) with C-terminus Biotin (human) (UniProt P08637).
The target of test [4] is Recombinant FcγRIIa (H131) with C-terminus Biotin (human) (UniProt P12318).
The target of test [5] is Recombinant FcγRIIIa (V158) with C-terminus Biotin (human).
Target sequence in this assay (P08637 17-208 F176V): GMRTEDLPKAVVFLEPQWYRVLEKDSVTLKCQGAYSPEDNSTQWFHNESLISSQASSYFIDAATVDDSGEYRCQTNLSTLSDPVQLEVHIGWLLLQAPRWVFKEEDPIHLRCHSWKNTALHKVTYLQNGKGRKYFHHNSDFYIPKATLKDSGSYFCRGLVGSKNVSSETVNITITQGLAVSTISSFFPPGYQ
Test [6] has as its target Recombinant FcγRIIa (H131) with C-terminus Biotin (human) (UniProt P12318). This is another data set of the same source.
In test [7] the target is Recombinant FcγRIIa (R131) with C-terminus Biotin (human) (UniProt P12318). This is another data set of the same source.
For test [8], the target named is Recombinant FcγRI with C-terminus Biotin (human) (UniProt P12314).
Chain of Recombinant FcγRI with C-terminus Biotin (human) (P12314 16-292): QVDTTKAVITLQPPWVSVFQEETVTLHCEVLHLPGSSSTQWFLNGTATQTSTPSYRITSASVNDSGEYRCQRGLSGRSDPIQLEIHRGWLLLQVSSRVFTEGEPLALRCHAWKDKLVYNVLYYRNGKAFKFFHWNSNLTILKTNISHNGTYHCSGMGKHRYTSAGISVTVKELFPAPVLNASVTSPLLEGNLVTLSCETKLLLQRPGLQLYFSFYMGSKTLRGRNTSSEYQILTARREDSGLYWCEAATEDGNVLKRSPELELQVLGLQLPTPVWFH
Test [9] has as its target Recombinant FcγRIIIa (V158) with C-terminus Biotin (human). The source holds these as a separate data set.
Target sequence in this assay (P08637 17-208 F176V): as the sequence (P08637 17-208 F176V) above
In test [10] the target is Recombinant FcγRIIa (H131) with C-terminus Biotin (human) (UniProt P12318). The source holds these as a separate data set.
In test [11] the target is Recombinant FcγRIIa (R131) with C-terminus Biotin (human) (UniProt P12318). The source holds these as a separate data set.
The target of test [12] is Recombinant FcγRI with C-terminus Biotin (human) (UniProt P12314). This is another data set of the same source.
The target in test [13] is Recombinant FcγRIIb with C-terminus Biotin (human) (UniProt P31994). The test can be described thus: other; qualitative only.
Test [14] concerns the target Recombinant FcγRIIIa (F158) with C-terminus Biotin (human) (UniProt P08637). The test can be described thus: split reporter (BiFC, NanoBiT); homogeneous competition assay in solution for FcγRIIa and FcγRIIIa variants: sample competes with IgG-LgBiT tracer for FcγR-Biotin mixed 1:1 with Streptavidin-SmBiT; 30–60 min; PBS with 10% superblock; IC50 equivalent to apparent affinity (KD).

Test [15] deals with Recombinant FcγRIIIa (V158) with C-terminus Biotin (human). The test is described as above.
In test [16] the target is Recombinant FcγRIIa (H131) with C-terminus Biotin (human) (UniProt P12318). The test is described as above.
Test [17] concerns the target Recombinant FcγRIIa (R131) with C-terminus Biotin (human). The test is described as above.

Like-named read-outs stand apart in the source and are kept apart here.

Chain of Recombinant FcγRIIa (H131) with C-terminus Biotin (human) (P12318 34-217): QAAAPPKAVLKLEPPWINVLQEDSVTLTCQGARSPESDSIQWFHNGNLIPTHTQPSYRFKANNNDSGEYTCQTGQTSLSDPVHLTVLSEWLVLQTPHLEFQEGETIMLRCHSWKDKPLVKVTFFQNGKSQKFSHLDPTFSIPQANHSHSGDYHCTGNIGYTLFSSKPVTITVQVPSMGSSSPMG
Chain of Human IgG2 (P01859 whole entry, looked up): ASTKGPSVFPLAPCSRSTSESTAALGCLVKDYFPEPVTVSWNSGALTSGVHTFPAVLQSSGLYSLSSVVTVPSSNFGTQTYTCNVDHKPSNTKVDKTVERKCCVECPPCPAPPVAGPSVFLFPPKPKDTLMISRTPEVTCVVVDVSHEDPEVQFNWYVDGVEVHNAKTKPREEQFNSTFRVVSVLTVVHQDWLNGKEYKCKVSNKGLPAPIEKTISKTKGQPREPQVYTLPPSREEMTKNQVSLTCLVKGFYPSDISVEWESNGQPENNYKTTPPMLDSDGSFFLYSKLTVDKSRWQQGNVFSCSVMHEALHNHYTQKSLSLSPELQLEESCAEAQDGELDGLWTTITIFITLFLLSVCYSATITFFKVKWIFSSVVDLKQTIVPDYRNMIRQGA
Chain of Recombinant FcγRIIa (R131) with C-terminus Biotin (human) (UniProt P12318) (P12318 34-217 H167R): as the sequence (P12318 34-217) above, with H134R counted along it
Chain of Human IgG4 (P01861 whole entry, looked up): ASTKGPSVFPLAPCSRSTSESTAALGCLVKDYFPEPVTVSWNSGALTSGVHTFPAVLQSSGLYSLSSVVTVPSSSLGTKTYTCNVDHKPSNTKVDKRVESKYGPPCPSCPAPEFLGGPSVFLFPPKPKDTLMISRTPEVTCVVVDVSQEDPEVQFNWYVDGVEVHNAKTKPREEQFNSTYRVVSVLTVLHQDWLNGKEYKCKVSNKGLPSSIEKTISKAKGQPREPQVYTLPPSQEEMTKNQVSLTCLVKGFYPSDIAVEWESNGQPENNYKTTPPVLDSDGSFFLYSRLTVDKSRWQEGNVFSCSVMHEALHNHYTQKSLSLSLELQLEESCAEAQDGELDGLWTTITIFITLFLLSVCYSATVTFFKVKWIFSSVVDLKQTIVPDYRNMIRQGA
Chain of Recombinant FcγRIIIa (F158) with C-terminus Biotin (human) (P08637 17-208): as the sequence (P08637 17-208 F176V) above, with V160F counted along it
Chain of Recombinant FcγRIIb with C-terminus Biotin (human) (P31994 43-217): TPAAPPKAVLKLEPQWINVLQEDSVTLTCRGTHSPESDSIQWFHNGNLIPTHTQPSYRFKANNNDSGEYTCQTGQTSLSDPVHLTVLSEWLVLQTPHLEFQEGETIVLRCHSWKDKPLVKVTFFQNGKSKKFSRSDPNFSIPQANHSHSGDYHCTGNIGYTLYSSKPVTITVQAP

By IC50 is commonly meant the concentration that inhibits the measured activity by half. Turning to Gammagard (from UniProt P01857), the IC50 in test [1] was 178 nM; in test [2], 1120 nM; in test [3], 95.5 nM; in test [4], 55.8 nM; in [5], 12.5 nM.
With Human IgG2 (from UniProt P01859), the IC50 in test [6] was found to be 77.1 nM; in test [7], 519 nM; in test [8] it was 29.4 nM; in test [9] it was 2040 nM.
On to Human IgG4 (from UniProt P01861), for which the IC50 in test [10] was 102 nM; in test [11], 128 nM; in test [12] it was 1.07 nM; in test [13], 573 nM.
For the substance “Human IgG (human polyclonal IgG) (antibody)”, the IC50 in test [14] came to 107 nM; in [15] it was 18.4 nM; in test [16] it was 11.3 nM; in test [17] it was 42.6 nM.
